From PMC4684408, “Co-evolution of Bacterial Ribosomal Protein S15 with Diverse mRNA Regulatory Structures”
Residue numbers refer to the chain shown, from its start.

Key:
Gk-S15 [1] = biological target: T1, Gk-S15 (UniProt Q5L0I3 1-89); experiment: filter binding; 50 mM Tris/acetate pH 7.5, 20 mM Mg-acetate, 270 mM KCl, 5 mM DTT, 0.02% BSA, RNA <1 nM, 30 min at 25 C (thermophile RNAs also at 55 C); settings: protein: recombinant, label: 5'-32P
Tt-S15 = Tt-S15 (Thermus thermophilus, UniProt Q5SJ76); experiment: as above; settings: protein: recombinant, label: 5'-32P
Gk-S15 [2] = biological target: T1, Gk-S15; experiment: filter binding; max fraction bound <20%; 50 mM Tris/acetate pH 7.5, 20 mM Mg-acetate, 270 mM KCl, 5 mM DTT, 0.02% BSA, RNA <1 nM, 30 min at 25 C (thermophile RNAs also at 55 C); settings: protein: recombinant; label: 5'-32P
Ec-S15 [3] = biological target: T2, Ec-S15 (Escherichia coli, UniProt P0ADZ4 1-89); experiment: filter binding; 50 mM Tris/acetate pH 7.5, 20 mM Mg-acetate, 270 mM KCl, 5 mM DTT, 0.02% BSA, RNA <1 nM, 30 min at 25 C (thermophile RNAs also at 55 C)
Rr-S15 = Rr-S15 (UniProt A0ABD5LGG5 1-89); experiment: as above; settings: protein: recombinant; label: 5'-32P
Ec-S15 [4] = biological target: T2, Ec-S15; experiment: filter binding; 5'-32P and 3'-pCp label; 50 mM Tris/acetate pH 7.5, 20 mM Mg-acetate, 270 mM KCl, 5 mM DTT, 0.02% BSA, RNA <1 nM, 30 min at 25 C (thermophile RNAs also at 55 C)

Tt-S15, sequence (Q5SJ76 2-89): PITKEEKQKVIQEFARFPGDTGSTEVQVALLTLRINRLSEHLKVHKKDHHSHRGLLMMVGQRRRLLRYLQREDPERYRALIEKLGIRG
Rr-S15, sequence (A0ABD5LGG5 entry or part of it): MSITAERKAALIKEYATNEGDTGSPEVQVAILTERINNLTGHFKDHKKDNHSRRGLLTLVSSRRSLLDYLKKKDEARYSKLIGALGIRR

B1: Rr-mRNA M1 (structured_RNA)
RNA: GGAUAGGCAGCGCCAGCUUGGGCUUUGCCUAUGCUGCUGAAUGGCCAGAGAAAGACGACAUCCCGGCUCUAGGCGUCCCCGUUUUUCCUUAAAACAAGAAAGGAUCGUACGAUGUCGAUUACUGCAGAGCGCAAAGCC
Kd (Gk-S15 [1]): 11.8 ± 6.9 nM | Kd (Tt-S15): 8.8 ± 1.8 nM

B2: Tt-mRNA WT (structured_RNA)
RNA: GGCUUGGCGGGAGACCGCCUCGAGGAGGAAGGGGCUCAAAGCGCCUUCCCGCCUGACGGAGGGAAAACAUGCCCAUCACGAA
Kd (Gk-S15 [1]; three-way junction): 0.35 ± 0.23 nM | Kd (Tt-S15; three-way junction): 2.11 ± 0.25 nM

B3: Tt-mRNA M1 (structured_RNA)
RNA: B2 RNA with U20A, C21A, G22A, A23U
Kd (Gk-S15 [2]): 76.3 ± 5.7 nM

B4: Gk-mRNA M2 (structured_RNA)
RNA: GGUCAAUGUAUGCGAACCAUUCUCCGGCUAGGCGAGUCACCGACGCCCGCUCGGCAAUCGGGGAUCUAGGACUAGGGAGGUGAACAAGGAUGGCAUUGAA
binding result (Ec-S15 [3]): no binding | binding result (Rr-S15): no binding | binding result (Tt-S15): no binding

B5: Ec-mRNA WT (structured_RNA)
RNA: ACUGGGAUCGCUGAAUUAGAGAUCGGCGUCCUUUCAUUCUAUAUACUUUGGAGUUUUAAAAUGUCUCUAAGUACUGAAGCAACAGCU
binding result (Ec-S15 [4]): no binding
